{
  "source": "patent US20240368275A1",
  "about": "(ELPIS BIOPHARMACEUTICALS, published 2024)",
  "binders": {"B1": {"name": "EP458/EP378/EP289 anti-Nectin4/CD3 bispecific antibody (bispecific antibody)", "heavy 1": "EVQLVQSGAEVKKPGASVKVSCKASGYTFTGYYMHWVRQAPGQGLEWMGRINPNSGGTNYAQKFQGRVTMTRDTSISTAYMELSGLRSDDTAVYFCARVTYNIGWYIDYWGQGTLVTVSSASTKGPSVFPLAPSSKSTSGGTAALGCLVKDYFPEPVTVSWNSGALTSGVHTFPAVLQSSGLYSLSSVVTVPSSSLGTQTYICNVNHKPSNTKVDKKVEPKSCDGGGGSGGGGSEVQLVESGGGLVQPGGSLRLSCAASGFTFSTYAMNWVRQAPGKGLEWVGRIRSKYNNYATYYADSVKGRFTISRDDSKNTLYLQMNSLRAEDTAVYYCVRHGNFGDSYVSWFAYWGQGTLVTVSSGGGGSGGGGSGGGGSGGGGSQAVVTQEPSLTVSPGGTVTLTCGSSTGAVTTSNYANWVQQKPGKSPRGLIGGTNKRAPGVPARFSGSLLGGKAALTISGAQPEDEADYYCALWYSNHWVFGGGTKLTVLEPKSCDKTHTCPPCPAPEAAGGPSVFLFPPKPKDTLMISRTPEVTCVVVDVSHEDPEVKFNWYVDGVEVHNAKTKPREEQYNSTYRVVSVLTVLHQDWLNGKEYKCKVSNKALGAPIEKTISKAKGQPREPQVCTLPPSRDELTKNQVSLSCAVKGFYPSDIAVEWESNGQPENNYKTTPPVLDSDGSFKLVSKLTVDKSRWQQGNVFSCSVMHEALHNHYTQKSLSLSPGK", "heavy 2": "not shown", "light": "QAVVTQPPSVSVAPGKTATITCGGNNIGSKGVHWYQQKPGQAPVLVIYYDTDRPSGIPERLSGSNSGNTATLTISRVEAGDEADYYCQVWDSSSDHPVFGGGTKLTVLGQPKANPTVTLFPPSSEELQANKATLVCLISDFYPGAVTVAWKADGSPVKAGVETTKPSKQSNNKYAASSYLSLTPEQWKSHRSYSCQVTHEGSTVEKTVAPTECS", "notes": "Bivalent for Nectin4: B09 heavy chain with sp34 scFv between CH1 and hinge, hole (EP458); B09 heavy chain knob (EP378); light chain EP289 pairs with both; also called EP458/378/289"}},
  "key": {"[1]": {"target": "T1, Nectin4 on Nectin4 positive cancer cell lines (T47D, HT1376, HCC1500, HT-29) (human, UniProt Q96NY8 32-510)", "T1 sequence (looked up)": "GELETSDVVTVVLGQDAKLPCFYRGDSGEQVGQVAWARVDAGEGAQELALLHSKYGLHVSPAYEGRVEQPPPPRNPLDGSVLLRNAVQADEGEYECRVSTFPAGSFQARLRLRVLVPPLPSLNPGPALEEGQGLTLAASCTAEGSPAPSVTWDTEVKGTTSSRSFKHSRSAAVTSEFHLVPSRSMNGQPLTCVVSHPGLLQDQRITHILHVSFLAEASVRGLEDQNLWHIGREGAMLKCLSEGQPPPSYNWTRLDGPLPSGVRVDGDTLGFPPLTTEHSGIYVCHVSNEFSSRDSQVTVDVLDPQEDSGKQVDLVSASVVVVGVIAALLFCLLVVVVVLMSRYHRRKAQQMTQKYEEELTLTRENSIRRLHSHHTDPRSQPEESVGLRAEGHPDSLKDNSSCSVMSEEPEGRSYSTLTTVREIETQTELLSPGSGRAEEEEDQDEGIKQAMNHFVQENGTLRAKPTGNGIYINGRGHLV", "assay": "cell-based or functional assay"}, "[2]": {"target": "T2, human CD3E HIS tagged protein (human, UniProt P07766 23-126)", "T2 construct": "not shown: HIS tag", "T2 sequence (P07766 23-126 limits assumed)": "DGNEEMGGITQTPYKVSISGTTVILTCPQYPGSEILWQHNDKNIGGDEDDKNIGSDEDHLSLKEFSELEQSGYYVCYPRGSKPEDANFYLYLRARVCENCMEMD", "assay": "ELISA, coated human CD3E HIS tagged protein, bispecific titrated, anti-Human HRP", "procedure": "(§1) An ELISA assay was developed to determine the EC₅₀ of anti-Nectin4/CD3 bispecific antibodies. Briefly, 384 well plate was immobilized with human CD3E or Nectin4 HIS tagged protein at final concentration of 2 ug/mL in 1×PBS in total volume of 25 uL per well. The plate was incubated overnight at 4° C. followed by blocking with 80 uL of superblock per well for 1 hour. Purified anti-Nectin4/CD3 was 3-fold serial titrated from 100 nM. 25 uL was added to human Nectin4/CD3 immobilized wells and incubated for 1 hour with shaking. The CD3E or Nectin4 binding was detected by adding 25 uL of anti-Human HRP diluted at 1:10000 in 1×PBST. In between each step, the plate was washed 3 times with […] in a plate washer. The plate was then developed with 20 ul of TMB substrate for 5 mins and stopped by adding 20 ul of 2N sulfuric acid. The plate was read at OD450 nm Biotek plate reader and then plotted in Prism 8.1 software to calculate EC50."}, "[3]": {"target": "T1, Nectin4 on Nectin4 positive cancer cell …", "assay": "cell-based or functional assay", "remark": "listed apart in the source"}, "[4]": {"target": "T3, CD3 on Jurkat cells (UniProt P07766 23-207, limits assumed)", "T3 construct": "whole, on cells; the whole CD3/TCR complex stands on the cells; also called Jurkat CD3", "T3 sequence (P07766 23-207 limits assumed)": "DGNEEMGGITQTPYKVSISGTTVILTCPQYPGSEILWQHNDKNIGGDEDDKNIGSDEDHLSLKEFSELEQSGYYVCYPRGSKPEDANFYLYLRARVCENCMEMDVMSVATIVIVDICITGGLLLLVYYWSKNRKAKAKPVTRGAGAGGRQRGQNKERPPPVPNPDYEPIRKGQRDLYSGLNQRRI", "assay": "flow cytometry on Jurkat cells", "procedure": "(§2) Jurkat cells were plated at 100,000 cells/well in a 96-well plate with 50 μL of full media. Anti-Nectin4/CD3 antibodies were 3-fold serial titrated from 20 nM. 50 μL was added to the cells and incubated for 1 hours at room temperature with shaking. Samples were washed one time with flow buffer. […] Samples were washed once with flow buffer. Samples were stained with 100 uL Zombie Fixable Viability Dyes at 1:800 dilution per well and incubated in dark at room temperature for 30 mins. Samples were spun down at 1300 rpm for 5 minutes and washed once with 200 uL flow buffer. Reconstituted samples in 200 uL of flow buffer and read on Attune NxT cytometer. EC50 values for CD3 binding were calculated using Prism 8.1 software.\nSimilar methods of above mentioned were used to measure the binding activities of anti-Nectin4/CD3/IL-2 complexes to CHO/Nectin4 and Jurkat cells, respectively."}, "[5]": {"target": "T4, human Nectin4-HIS tagged recombinant protein (human, UniProt Q96NY8 32-349)", "T4 construct": "also called hNectin4-HIS; Nectin4 HIS tagged protein; not shown: HIS tag", "T4 sequence (looked up)": "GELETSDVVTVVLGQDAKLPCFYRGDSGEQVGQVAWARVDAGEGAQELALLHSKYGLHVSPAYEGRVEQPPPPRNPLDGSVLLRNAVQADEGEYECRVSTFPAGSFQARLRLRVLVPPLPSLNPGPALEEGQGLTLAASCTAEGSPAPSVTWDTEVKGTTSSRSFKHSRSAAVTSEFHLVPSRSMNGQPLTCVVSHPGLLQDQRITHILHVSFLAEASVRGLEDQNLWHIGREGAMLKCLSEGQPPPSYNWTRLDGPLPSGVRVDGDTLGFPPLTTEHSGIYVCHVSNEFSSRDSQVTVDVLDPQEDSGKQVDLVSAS", "assay": "ELISA, coated Nectin4 HIS tagged protein, bispecific titrated, anti-Human HRP", "procedure": "as §1"}, "[6]": {"target": "T3, CD3 on Jurkat cells", "assay": "flow cytometry on Jurkat cells", "procedure": "as §2", "remark": "listed apart in the source"}, "[7]": {"target": "T1, Nectin4 on Nectin4 positive cancer cell …", "assay": "flow cytometry on HT1376 cells"}, "[8]": {"target": "T1, Nectin4 on Nectin4 positive cancer cell …", "assay": "flow cytometry on T47D cells"}, "[9]": {"target": "T3, CD3 on Jurkat cells", "assay": "cell-based or functional assay"}, "[10]": {"target": "T4, human Nectin4-HIS tagged recombinant …", "assay": "SPR Biacore T200, bispecific captured on Protein A chip, hNectin4-HIS injected", "procedure": "(§3) The assay was run with Biacore T200 control software version 2.0. For each cycle, 1 ug/mL of anti-hNectin4/CD3 antibody was captured for 60 seconds at flow rate of 10 ul/min on flow cell 2 in 1×HBSP buffer on Protein A sensor chip. 2-fold serial diluted CD3E-HIS or hNectin4-HIS tagged protein was injected onto both reference flow cell 1 and anti-Nectin4/CD3 bispecific captured flow cell 2 for 150 seconds at flow rate of 30 ul/mins followed by wash for 300 seconds. The flow cells were then regenerated with Glycine pH2 for 60 seconds at flow rate of 30 ul/mins. 8 concentration points from 100 nM-0 nM (CD3E-HIS) or 300 nM-0 nM (Nectin4-HIS) was assayed per anti-Nectin4 IgG in a 96 well plate. The kinetics of Anti-Nectin4/CD3 bispecific binding to CD3E and Nectin4 proteins was analyzed with Biacore T200 evaluation software version 3.0. The specific binding response unit was derived from subtraction of binding to reference flow cell 1 from antibody captured flow cell 2. Table 10 below listed the kinetics results. ND means not determined. NA means data not available."}, "[11]": {"target": "T2, human CD3E HIS tagged protein", "assay": "SPR Biacore T200, bispecific captured on Protein A chip, CD3E-HIS injected", "procedure": "as §3"}, "[12]": {"target": "T5, full-length human Nectin4 with C-terminal flag and Myc tags on CHO cells (human, UniProt Q96NY8 32-510)", "T5 construct": "whole, on cells; also called Nectin4/CHO; CHO/Nectin4; not shown: C-terminal flag and Myc tags of pCMV6-Entry vector", "T5 sequence (looked up)": "T1 sequence (looked up)", "assay": "flow cytometry on CHO/Nectin4 cells", "procedure": "Nectin4/CHO Nectin4 cells were plated at 100,000 cells/well in a 96-well plate in 50 μL of full media. Cells were rested 1 hour at 37° C. Anti-Nectin4/CD3 was 3-fold serial titrated from 50 nM. 50 μL was added to the cells and incubated for 1 hours with shaking. Samples were washed one time with flow buffer. […] Samples were washed once with flow buffer. Samples were stained with 100 uL Zombie Fixable Viability Dyes (1:800 dilution) per well and incubated in dark at room temperature for 30 mins. Samples were spun down at 1200 rpm for 5 minutes and washed once with 200 uL flow buffer. Reconstituted samples in 200 uL of flow buffer and read on Attune NxT cytometer. EC₅₀ values for Nectin4 Binding were determined using Prism software."}},
  "note": "Where two headings read alike, the source gives them in different places.",
  "data": [
    {"binder": "B1", "values": [
      {"measurement": "EC50 Values in CTL Assay Against T47D Cancer Cells (PBMC)", "setting": "[1]", "value": 0.0047, "unit": "nM"},
      {"measurement": "EC50 Values in CTL Assay Against T47D Cancer Cells (T cell)", "setting": "[1]", "value": 0.0064, "unit": "nM"},
      {"measurement": "EC50", "setting": "[2]", "value": 0.011, "unit": "nM"},
      {"measurement": "EC50 Values in CTL Assay Against PBMC", "setting": "[3]", "value": 0.0014, "unit": "nM"},
      {"measurement": "EC50", "setting": "[4]", "value": 4.37, "unit": "nM"},
      {"measurement": "EC50", "setting": "[5]", "value": 0.21, "unit": "nM"},
      {"measurement": "EC50", "setting": "[6]", "value": 4.7, "unit": "nM"},
      {"measurement": "EC50", "setting": "[7]", "value": 0.14, "unit": "nM"},
      {"measurement": "EC50", "setting": "[8]", "value": 0.044, "unit": "nM"},
      {"measurement": "NFAT reporter EC50", "setting": "[9]", "value": 0.0004, "unit": "nM"},
      {"measurement": "Kd", "setting": "[10]", "value": 3.67, "unit": "nM"},
      {"measurement": "koff", "setting": "[10]", "value": 0.000472, "unit": "s⁻¹"},
      {"measurement": "kon", "setting": "[10]", "value": 129000, "unit": "M⁻¹ s⁻¹"},
      {"measurement": "Kd", "setting": "[11]", "value": 3.26, "unit": "nM"},
      {"measurement": "koff", "setting": "[11]", "value": 0.000739, "unit": "s⁻¹"},
      {"measurement": "kon", "setting": "[11]", "value": 227000, "unit": "M⁻¹ s⁻¹"},
      {"measurement": "EC50", "setting": "[12]", "value": 0.146, "unit": "nM"}
    ]}
  ]
}
